Measured values from PMC4537477.

Key:
[1] = biological target: full-length human histone H3 (human) (UniProt P68431); experiment: SEC; Superdex 200 10/300 GL; complex obtained at 0.5 mol/L NaCl; eluted at 14.38 mL, apparent molecular weight about 60 kDa; apparent stoichiometry also by Coomassie-stained SDS-PAGE
[2] = biological target: histone H3-H4 heterodimer (human) (UniProt P68431); experiment: as above

Row | Substance | stoichiometry N [1] | stoichiometry N [2]
1 | full-length human histone H4 (from UniProt P62805 1-103) (natural protein) | 1 | 
2 | N-terminal domain of human MCM2 (aa 63–154) (from UniProt P49736 63-154) (domain or fragment) |  | 1
3 | globular domain of ASF1a (aa 1–157) (from UniProt Q9Y294 1-157) (domain or fragment) |  | 1
